Blank lines part the entries; values can stand above or below the binder they belong to.
Biological target: T1, MOG35-55 peptide on I-Ab (mouse)
T1 peptide: GWYRSPFSRVV
Assay: activation reporter or marker

binding result: recognises
B1: EAE2-CD4 (TCR)
alpha TRAV12-1 TRAJ23 CDR3: CALRNYNQGKLIF
beta TRBV16 TRBJ1-4 CDR3: CASSLDQGWDERLFF

binding result: recognises
B2: EAE3-CD4 (TCR)
alpha TRAV14D-1 TRAJ43 CDR3: CAASGANNNNAPRF
beta TRBV3 TRBJ2-5 CDR3: CASSLEGHQDTQYF

Source: paper PMC7145319 (2019)
